# Reference: patent publication US20250163162A1 (SYNTHEKINE, published 2025)
# B1: DR465(DR240-DR231) (bispecific antibody)
# chain: QVQLQESGGGSVQAGGSLRLSCGASGYTYSSYCMGWFRQVPGKEREGVAVIDSDGSTSYADSVKGRFTISKDNGKNTLYLQMNSLKPEDTAMYYCAADLGHYRPPCGVLYLGMDYWGKGTQVTVSSGGGSQVQLQESGGGSVQAGGSLRLSCTASGFTFDDREMNWYRQAPGNECELVSTISSDGSTYYADSVKGRFTISQDNAKNTVYLQMDSVKPEDTAVYYCAADFMIAIQAPGAGCWGQGTQVTVSSASHHHHHH
# Columns and labels:
# Assay in all cases: cell-based or functional assay
# IL10Rα/IL2Rγ receptor [1] = biological target: T1, IL10Rα/IL2Rγ receptor (human, UniProt Q13651 22-578; P31785 23-369)
# T1 sequence (looked up) 1: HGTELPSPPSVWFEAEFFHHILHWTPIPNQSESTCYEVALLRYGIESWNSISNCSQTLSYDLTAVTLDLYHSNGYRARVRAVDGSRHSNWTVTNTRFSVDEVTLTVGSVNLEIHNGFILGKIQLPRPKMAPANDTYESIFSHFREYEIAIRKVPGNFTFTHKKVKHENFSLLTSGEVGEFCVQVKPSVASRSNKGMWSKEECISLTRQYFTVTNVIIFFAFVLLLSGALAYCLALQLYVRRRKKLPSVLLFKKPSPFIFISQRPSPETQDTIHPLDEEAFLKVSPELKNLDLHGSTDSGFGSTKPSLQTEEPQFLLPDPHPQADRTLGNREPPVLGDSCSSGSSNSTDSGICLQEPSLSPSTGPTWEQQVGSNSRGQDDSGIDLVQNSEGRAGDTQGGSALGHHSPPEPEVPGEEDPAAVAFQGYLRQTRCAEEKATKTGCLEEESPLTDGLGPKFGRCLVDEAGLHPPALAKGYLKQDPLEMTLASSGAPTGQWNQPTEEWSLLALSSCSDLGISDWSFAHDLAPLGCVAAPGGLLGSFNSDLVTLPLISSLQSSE
# T1 sequence (looked up) 2: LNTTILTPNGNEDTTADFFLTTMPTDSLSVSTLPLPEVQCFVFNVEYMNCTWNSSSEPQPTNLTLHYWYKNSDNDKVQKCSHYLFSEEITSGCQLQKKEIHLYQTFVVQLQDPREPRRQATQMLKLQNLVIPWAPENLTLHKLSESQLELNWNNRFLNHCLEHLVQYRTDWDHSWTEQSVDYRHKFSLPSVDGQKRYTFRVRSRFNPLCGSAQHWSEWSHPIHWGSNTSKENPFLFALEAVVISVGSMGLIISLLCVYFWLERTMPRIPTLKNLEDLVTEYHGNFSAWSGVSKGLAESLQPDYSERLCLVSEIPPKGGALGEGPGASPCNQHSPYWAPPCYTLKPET
# IL10Rα/IL2Rγ receptor [2] = biological target: T1, IL10Rα/IL2Rγ receptor; remark: listed apart in the source
# IL10Rα/IL2Rγ receptor [3] = biological target: T1, IL10Rα/IL2Rγ receptor; remark: listed apart in the source
# IL10Rα/IL2Rγ receptor [4] = biological target: T1, IL10Rα/IL2Rγ receptor; remark: listed apart in the source
# IL10Rα/IL2Rγ receptor [5] = biological target: T1, IL10Rα/IL2Rγ receptor; remark: listed apart in the source
# IL10Rα/IL2Rγ receptor [6] = biological target: T1, IL10Rα/IL2Rγ receptor; remark: listed apart in the source
binder,measurement,setting,value
B1,"pSTAT3 MFI, B cells, 100 nM (unstimulated 1045)",IL10Rα/IL2Rγ receptor [1],1660 MFI
same,"pSTAT3 MFI, CD4+ T cells, 100 nM (unstimulated 1778)",IL10Rα/IL2Rγ receptor [1],6350 MFI
same,"pSTAT3 MFI, CD8+ T cells, 100 nM (unstimulated 1288)",IL10Rα/IL2Rγ receptor [1],4510 MFI
same,"pSTAT3 MFI, Monocytes, 100 nM (unstimulated 1787)",IL10Rα/IL2Rγ receptor [1],2350 MFI
same,"pSTAT3 MFI, NK cells, 100 nM (unstimulated 1149)",IL10Rα/IL2Rγ receptor [1],1880 MFI
same,"pSTAT3 MFI, B cells, 0.0001 nM (unstimulated 1193.5)",IL10Rα/IL2Rγ receptor [2],1110 MFI
same,"pSTAT3 MFI, B cells, 0.001 nM (unstimulated 1193.5)",IL10Rα/IL2Rγ receptor [2],1100 MFI
same,"pSTAT3 MFI, B cells, 0.01 nM (unstimulated 1193.5)",IL10Rα/IL2Rγ receptor [2],1090 MFI
same,"pSTAT3 MFI, B cells, 0.1 nM (unstimulated 1193.5)",IL10Rα/IL2Rγ receptor [2],1110 MFI
same,"pSTAT3 MFI, B cells, 1 nM (unstimulated 1193.5)",IL10Rα/IL2Rγ receptor [2],1290 MFI
same,"pSTAT3 MFI, B cells, 10 nM (unstimulated 1193.5)",IL10Rα/IL2Rγ receptor [2],1840 MFI
same,"pSTAT3 MFI, B cells, 100 nM (unstimulated 1193.5)",IL10Rα/IL2Rγ receptor [2],1850 MFI
same,"pSTAT3 MFI, CD4 T cells, 0.0001 nM (unstimulated 1887)",IL10Rα/IL2Rγ receptor [3],1800 MFI
same,"pSTAT3 MFI, CD4 T cells, 0.001 nM (unstimulated 1887)",IL10Rα/IL2Rγ receptor [3],1800 MFI
same,"pSTAT3 MFI, CD4 T cells, 0.01 nM (unstimulated 1887)",IL10Rα/IL2Rγ receptor [3],1850 MFI
same,"pSTAT3 MFI, CD4 T cells, 0.1 nM (unstimulated 1887)",IL10Rα/IL2Rγ receptor [3],2210 MFI
same,"pSTAT3 MFI, CD4 T cells, 1 nM (unstimulated 1887)",IL10Rα/IL2Rγ receptor [3],4730 MFI
same,"pSTAT3 MFI, CD4 T cells, 10 nM (unstimulated 1887)",IL10Rα/IL2Rγ receptor [3],7240 MFI
same,"pSTAT3 MFI, CD4 T cells, 100 nM (unstimulated 1887)",IL10Rα/IL2Rγ receptor [3],7070 MFI
same,"pSTAT3 MFI, NK cells, 0.0001 nM (unstimulated 1315)",IL10Rα/IL2Rγ receptor [4],1220 MFI
same,"pSTAT3 MFI, NK cells, 0.001 nM (unstimulated 1315)",IL10Rα/IL2Rγ receptor [4],1230 MFI
same,"pSTAT3 MFI, NK cells, 0.01 nM (unstimulated 1315)",IL10Rα/IL2Rγ receptor [4],1220 MFI
same,"pSTAT3 MFI, NK cells, 0.1 nM (unstimulated 1315)",IL10Rα/IL2Rγ receptor [4],1250 MFI
same,"pSTAT3 MFI, NK cells, 1 nM (unstimulated 1315)",IL10Rα/IL2Rγ receptor [4],1520 MFI
same,"pSTAT3 MFI, NK cells, 10 nM (unstimulated 1315)",IL10Rα/IL2Rγ receptor [4],2040 MFI
same,"pSTAT3 MFI, NK cells, 100 nM (unstimulated 1315)",IL10Rα/IL2Rγ receptor [4],2130 MFI
same,"pSTAT3 MFI, CD8 T cells, 0.0001 nM (unstimulated 1446)",IL10Rα/IL2Rγ receptor [5],1390 MFI
same,"pSTAT3 MFI, CD8 T cells, 0.001 nM (unstimulated 1446)",IL10Rα/IL2Rγ receptor [5],1370 MFI
same,"pSTAT3 MFI, CD8 T cells, 0.01 nM (unstimulated 1446)",IL10Rα/IL2Rγ receptor [5],1380 MFI
same,"pSTAT3 MFI, CD8 T cells, 0.1 nM (unstimulated 1446)",IL10Rα/IL2Rγ receptor [5],1590 MFI
same,"pSTAT3 MFI, CD8 T cells, 1 nM (unstimulated 1446)",IL10Rα/IL2Rγ receptor [5],3260 MFI
same,"pSTAT3 MFI, CD8 T cells, 10 nM (unstimulated 1446)",IL10Rα/IL2Rγ receptor [5],4850 MFI
same,"pSTAT3 MFI, CD8 T cells, 100 nM (unstimulated 1446)",IL10Rα/IL2Rγ receptor [5],5020 MFI
same,"pSTAT3 MFI, Monocytes, 0.0001 nM (unstimulated 2116)",IL10Rα/IL2Rγ receptor [6],1990 MFI
same,"pSTAT3 MFI, Monocytes, 0.001 nM (unstimulated 2116)",IL10Rα/IL2Rγ receptor [6],1970 MFI
same,"pSTAT3 MFI, Monocytes, 0.01 nM (unstimulated 2116)",IL10Rα/IL2Rγ receptor [6],1950 MFI
same,"pSTAT3 MFI, Monocytes, 0.1 nM (unstimulated 2116)",IL10Rα/IL2Rγ receptor [6],1960 MFI
same,"pSTAT3 MFI, Monocytes, 1 nM (unstimulated 2116)",IL10Rα/IL2Rγ receptor [6],2110 MFI
same,"pSTAT3 MFI, Monocytes, 10 nM (unstimulated 2116)",IL10Rα/IL2Rγ receptor [6],2470 MFI
same,"pSTAT3 MFI, Monocytes, 100 nM (unstimulated 2116)",IL10Rα/IL2Rγ receptor [6],2470 MFI
